Consider 4 molecules from US9975933B2, “Tumor tissue-penetrating peptide specific to neuropilin and fusion protein having same peptide fused therein” (AJOU UNIVERSITY INDUSTRY-ACADEMIC COOPERATION FOUNDATION, priority 2013, dated 2018).

One series deals with FaDu tumor. As to the kind of experiment: In vivo Evans Blue assay of vascular permeability. Further details: species or system Balb/c nude mice. The settings on record: FaDu xenograft, 400 ng, 40 minutes. On the procedure: Additionally, in order to confirm the improvement of vascular permeability in vivo, Evans Blue assay was conducted. […] 40 minutes after injection, the mice were perfused through the heart with PBS containing 1% BSA, and tumor tissues were extracted (FIG. 11d). Then, the extracted tissues were put into 1 ml of […] (Sigma) and reacted at 37° C. overnight under mild shaking condition. Thereafter, the supernatant was obtained from centrifugation to measure the absorbance (600 nm), and the amount that Evans Blue penetrated was quantified.

For series [1], the system named is HUVEC. As to the kind of experiment: Tube formation assay in HUVEC. To be noted: VEGF165A 20 ng/ml, 8 hours. The format is cell-based, human. On the procedure: As an experiment confirming angiogenesis in vitro based thereon, tube formation assay was conducted. As an experimental method, 50 μl of ECMatrix was injected into 96-well plates and polymerized at 37° C. for 2 hours. […] The incubated cells were observed by a microscope to obtain images.

The subject of series [2] is HUVEC. Description: Transwell assay of vascular endothelial cell permeability. To be noted: 30 minutes. Format: cell-based, human. The protocol:
Based on the above experimental results, as experiments for confirming the improvement of vascular endothelial cell permeability, single peptides and Fc-TPP were treated to conduct Transwell assay.
Specifically, HUVECs were seeded into Transwell plate (Corning) at a density of 5×10^4 per well in a upper chamber using Endothelial Growth Medium, PromoCell (EGM) medium, followed by incubation at 37° C. for 3 days under 5% CO2 condition. […] Thereafter, Dextran-FITC (Sigma) 50 μg was put into the upper chamber and the medium of the lower chamber was sampled to measure its fluorescence after 30 minutes, using the principle that a fluorescent substance is observed in the lower chamber when the permeability in HUVECs was improved.

In the next series the test system is VE-cadherin in HUVEC. Description: Western blot of VE-cadherin in HUVEC. The format is cell-based, human. The settings on record: single peptides and Fc-TPP 1 μM, 10 minutes. An excerpt:
During this process, a decrease in vascular endothelial (VE)-cadherin, phosphorylation, etc. of endothelial cells occur. That is, VE-cadherin or epithelial (E)-cadherin involves in adhesion between endothelial cells, while forming the base of adherent junction between endothelial cells and epithelial cells. The change in molecules relieve the density of adherent junction, which results in increasing permeability of blood vessels and improving intracellular permeability.
As an experimental method for indirectly confirming improvement of vascular permeability based thereon, a change in VE-cadherin was confirmed through a Western blot. Specifically, HUVECs were seeded into 6-well plates at a density of 3×10^5 per well, followed by incubation for 24 hours. Thereafter, single peptides and Fc-TPP were treated with 1 μM for 10 minutes to perform a Western blot. Gel subjected to SDS-PAGE was transported into PVDF membrane, a primary antibody (SantaCruz) and an HRP-conjugated secondary antibody (SantaCruz) which recognize VE-cadherin and (3-actin, respectively were used for detection. ImageQuant LAS4000 mini (GE Healthcare) was used for analysis.
In general terms: In western blotting, separated proteins are transferred to a membrane and probed.

Series [3] deals with T1, NRP1-b1b2 (b1b2 domain of neuropilin-1) (Homo sapiens, UniProt O14786).
T1 construct: b1b2 domains (273-586) of neuropilin-1
Description: SPR (Biacore2000) binding to b1b2 domain of neuropilin-1. To be noted: for Association rate ka / Dissociation rate kd / Kd: NRP1-b1b2, SPR; for Kd: read-out: Binding affinity KD. On the procedure:
(§1) Specifically, each b1b2 domain of neuropilin-1 and -2 was diluted with 10 mM Na-acetate buffer (pH 4.0), and fixed onto CMS sensor chips (GE healthcare, USA) in about 1000 response units (RU). […] After bond and dissociation analysis, the regeneration of CMS chip was performed by streaming a buffer (20 Mm NaOH, 1 M NaCl, pH 10.0) at a stream velocity 30 μl/min for 1 minute.
A general note: Surface plasmon resonance follows binding to a sensor surface in real time, without labels.

In series [4] the target is T2, NRP2-b1b2 (b1b2 domain of neuropilin-2) (Homo sapiens, UniProt O60462).
T2 construct: b1b2 domains (275-595) of neuropilin-2
T2 sequence (O60462 275-595): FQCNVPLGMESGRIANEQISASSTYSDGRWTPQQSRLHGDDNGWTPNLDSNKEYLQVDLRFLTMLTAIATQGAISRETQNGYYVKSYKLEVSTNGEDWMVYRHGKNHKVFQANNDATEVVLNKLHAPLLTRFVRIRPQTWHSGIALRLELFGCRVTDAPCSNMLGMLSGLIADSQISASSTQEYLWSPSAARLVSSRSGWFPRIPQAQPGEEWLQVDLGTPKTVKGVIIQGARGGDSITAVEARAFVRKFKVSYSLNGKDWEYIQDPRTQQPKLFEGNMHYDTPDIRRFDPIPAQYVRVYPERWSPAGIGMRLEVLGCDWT
Description: SPR (Biacore2000) binding to b1b2 domain of neuropilin-2. To be noted: for Kd: read-out: Binding affinity KD. On the procedure:
as §1

The next series concerns E-cadherin in FaDu. Description: Western blot of E-cadherin in FaDu. Format: cell-based, human. The protocol:
In order to confirm the effect of TPP on cancer cells, a change in E-cadherin was analyzed in human head and neck cancer cell line FaDu, under the same conditions as above experiments through Western blot.

The subject of a further series is PPC-1 cells. As to the kind of experiment: Confocal microscopy of intracellular penetration and co-localization with neuropilin. The format is cell-based, human. The settings on record: 1 μM, 37° C., 1 hour. The protocol: In order to confirm whether Fc-TPP has intracellular penetrating capacity by neuropilin-1 and -2, like other neuropilin ligands having intracellular penetrating capacity, confocal microscopy was used to observe intracellular penetration and co-localization with neuropilin-1 and -2.
Specifically, 5×10^4 PPC-1 cells were plated into 24-well plates containing DMEM medium 0.5 ml supplemented with 10% FBS per well, followed by incubation at 37° C. for 24 hours at 5% CO2. When the cells were stabilized, each well was washed with PBS 0.5 ml. […] After the medium was removed and each well was washed with PBS, Fc-TPP was stained with an antibody (Sigma) which specifically recognizes the FITC (green fluorescence)-conjugated Fc, and neuropilin-1 and -2 was stained with a primary antibody (SantaCruz) which recognizes each of them and with a TRITC (red fluorescence)-conjugated secondary antibody (Sigma). Nuclei were stained (blue fluorescence) with DAPI and observed under confocal microscopy.

The subject of series [5] is neuropilin-1 and -2 expressed on cell surface (SK-OV-3). As to the kind of experiment: FACS binding to neuropilin-1 and -2 expressed on cell surface. Format: cell-based, human. On the procedure: Specifically, after incubating human ovarian cancer cell line (SK-OV-3) under conditions of 5% CO2 and 37° C., 1×10^5 cells per sample were resuspended in a PBS buffer supplemented with 2% BSA and transferred to a FACS tube for conducting experiments.
Then, the mixture was reacted with cell line SK-OV-3 at 4° C. for 1 hour in the same manner and proteins were stained for conducting FACS analysis. […] This means that Fc-TPP binds specifically to neuropilin-1 and -2.
This means that the binding of Fc-TPP to neuropilin-1 and -2 is specific similar to the original ligands.
In general terms: Flow cytometry measures light scatter and fluorescence of single cells or particles in a stream.

Another series deals with A431 tumor. Description: IHC of Fc-TPP infiltration in A431 tumor tissue. The settings on record: A431 xenograft, 5 mg/kg intravenously, 3 hours. Format: in vivo, Balb/c nude mice. On the procedure: 3 hours after injection, tumors were extracted from mice to conduct immunohistochemistry experiment. The extracted tumors were cut into 20 μm thick using a frozen section method, and stained with a primary antibody, CD31 antibody (BD Pharmingen), and a TRITC (red fluorescence)-conjugated secondary antibody. Further, in order to observe Fc-TPP distributed in the tissues, FITC (green fluorescence)-conjugated antibodies recognizing Fc were used.

[6] abbreviates: single peptides and Fc-TPP 1 μM.

T1 sequence (O14786 273-586): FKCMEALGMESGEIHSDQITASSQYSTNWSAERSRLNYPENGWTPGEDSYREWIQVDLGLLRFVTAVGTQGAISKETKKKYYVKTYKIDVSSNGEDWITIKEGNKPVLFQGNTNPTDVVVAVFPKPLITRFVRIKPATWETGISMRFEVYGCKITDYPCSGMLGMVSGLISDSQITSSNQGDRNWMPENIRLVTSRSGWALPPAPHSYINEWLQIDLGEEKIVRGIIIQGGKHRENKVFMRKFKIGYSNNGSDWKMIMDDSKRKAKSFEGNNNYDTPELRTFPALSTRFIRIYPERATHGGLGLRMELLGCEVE

On to “VEGF165: Vascular endothelial cell growth factor-A isoform, neuropilin ligand, control group [reference compound]”, for which the “vascular permeability (Evans Blue)” value with FaDu tumor was “increased vascular permeability”. Besides, in the series on HUVEC [1], the “tube formation of HUVEC” value is given as “increased tube formation”. In addition, the “permeability of HUVEC (Transwell, Dextran-FITC)” value (from here on “permeability of HUVEC”) in the series with HUVEC [2] (control ligands about 1.3 nM) is listed as “permeability of HUVEC was improved”. Moreover, the “change in VE-cadherin (Western blot)” value in the series on VE-cadherin in HUVEC was “a decrease in VE-cadherin was observed”. Further, in series [3], the Association rate ka is listed as 9.75 ± 0.53 × 10^5 M^−1s^−1 and the Dissociation rate kd was 3.42 ± 0.29 × 10^−3 s^−1. In series [4], the Association rate ka is 1.17 ± 0.12 × 10^5 M^−1s^−1 and the Dissociation rate kd is given as 3.73 ± 0.19 × 10^−3 s^−1.

A word on the Kd: it is the concentration at which binding is half-saturated. As to “Fc-15F22p: Human IgG1 Fc with TPP 15F22p (SEQ ID NO: 10) fused to its C-terminus (GGGGSGGGGSGGGGSREAPGAPRSPEPQDQKKPRPRR)”, the “change in E-cadherin (Western blot)” value in the series with E-cadherin in FaDu is listed as “E-cadherin was decreased”. Also, the “permeability of HUVEC” value in the series with HUVEC [2] (setting [6]) was “improvement of vascular permeability was induced”. Also, in the series with PPC-1 cells, the “co-localization with neuropilin-1 and -2” value was “co-localized with neuropilin-1 and -2”; the “intracellular penetration (confocal microscopy)” value is on record as “penetrated into cells”. Besides, the “cell binding capacity after reaction in advance with b1b2 domains of neuropilin-1 and -2” value in [5] (1 μM protein, 2 μM b1b2 domains, SK-OV-3) was “remarkably reduced”. The “cell binding capacity when mixed with parent ligand Sema3A or Sema3F” value in series [5] (Sema3A (Fc-15A22P) / Sema3F (Fc-15F22P) 100 μg/ml) is reported as “reduced”. For the same molecule, the “cell binding capacity when mixed with VEGF165A” value in series [5] (VEGF165A 1 μg/ml) was “reduced”. In addition, the “change in VE-cadherin (Western blot)” value in the series on VE-cadherin in HUVEC is recorded as “induced a decrease in VE-cadherin”. Further, in series [3], the Association rate ka is recorded as 1.73 ± 0.26 × 10^4 M^−1s^−1, the Dissociation rate kd is recorded as 1.38 ± 0.12 × 10^−3 s^−1 and the Kd came to 79.7 nM. In series [4], the Association rate ka was 1.34 ± 0.24 × 10^4 M^−1s^−1, the Dissociation rate kd was 1.23 ± 0.16 × 10^−3 s^−1 and the Kd stood at 92.4 nM.

As to “Fc-15A22: Human IgG1 Fc with TPP 15A22 (SEQ ID NO: 6) fused to its C-terminus (GGGGSGGGGSGGGGSHTPGNSNKWKHLQENKKGRNRR)”, the “infiltration into tumor tissue (IHC)” value with A431 tumor is recorded as “infiltrated into tumor cells”. For the same molecule, the “change in E-cadherin (Western blot)” value in the series with E-cadherin in FaDu is “induced a decrease in E-cadherin”. Further, in the series with HUVEC [2] (setting [6]), the “permeability of HUVEC” value is “permeability of HUVEC was improved”. Further, the “change in VE-cadherin (Western blot)” value with VE-cadherin in HUVEC is reported as “VE-cadherin was decreased”. In addition, the “difference in binding affinity between GAGA linker and (GGGGS)3 linker clones” value in series [3] (Fc-4A22 compared with Fc-15A22, b1b2 of neuropilin-1 and -2) is on record as “about 10 times”. Besides, in series [3], the Association rate ka is reported as 4.86 ± 0.98 × 10^3 M^−1s^−1, the Dissociation rate kd is 2.95 ± 0.04 × 10^−2 s^−1 and the Kd is 6060 nM. In [4], the Association rate ka is 3.94 ± 0.42 × 10^3 M^−1s^−1, the Dissociation rate kd was 3.87 ± 0.09 × 10^−2 s^−1 and the Kd worked out at 9800 nM.

B1: Sema3A: Secreted class 3 semaphorin 3A (26-760), neuropilin ligand, control group (protein)
chain: KNNVPRLKLSYKEMLESNNVITFNGLANSSSYHTFLLDEERSRLYVGAKDHIFSFDLVNIKDFQKIVWPVSYTRRDECKWAGKDILKECANFIKVLKAYNQTHLYACGTGAFHPICTYIEIGHHPEDNIFKLENSHFENGRGKSPYDPKLLTASLLIDGELYSGTAADFMGRDFAIFRTLGHHHPIRTEQHDSRWLNDPKFISAHLISESDNPEDDKVYFFFRENAIDGEHSGKATHARIGQICKNDFGGHRSLVNKWTTFLKARLICSVPGPNGIDTHFDELQDVFLMNFKDPKNPVVYGVFTTSSNIFKGSAVCMYSMSDVRRVFLGPYAHRDGPNYQWVPYQGRVPYPRPGTCPSKTFGGFDSTKDLPDDVITFARSHPAMYNPVFPMNNRPIVIKTDVNYQFTQIVVDRVDAEDGQYDVMFIGTDVGTVLKVVSIPKETWYDLEEVLLEEMTVFREPTAISAMELSTKQQQLYIGSTAGVAQLPLHRCDIYGKACAECCLARDPYCAWDGSACSRYFPTAKRRTRRQDIRNGDPLTHCSDLHHDNHHGHSPEERIIYGVENSSTFLECSPKSQRALVYWQFQRRNEERKEEIRVDDHIIRTDQGLLLRSLQQKDSGNYLCHAVEHGFIQTLLKVTLEVIDTEHLEELLHKDDDGDGSKTKEMSNSMTPSQKVWYRDFMQLINHPNLNTMDEFCEQVWKRDRKQRRQRPGHTPGNSNKWKHLQENKKGRNRR
As for B1, the “vascular permeability (Evans Blue)” value in the series on FaDu tumor is “increased vascular permeability”. In addition, the “permeability of HUVEC” value in the series with HUVEC [2] (control ligands about 1.3 nM) is on record as “permeability of HUVEC was improved”. Moreover, the “change in VE-cadherin (Western blot)” value in the series with VE-cadherin in HUVEC is on record as “a decrease in VE-cadherin was observed”. In series [3], the Association rate ka was 2.89 ± 0.07 × 10^4 M^−1s^−1, the Dissociation rate kd is on record as 8.08 ± 0.06 × 10^−4 s^−1 and the Kd stood at 27.9 nM. In [4], the Association rate ka is 6.96 ± 0.03 × 10^3 M^−1s^−1, the Dissociation rate kd is listed as 1.61 ± 0.28 × 10^−3 s^−1 and the Kd came to 231 nM.
